The assay concerns the target GST fusion form of full-length human cIAP1 (human) (UniProt Q13490). Nature of the assay: cell-based or functional assay.

Chain of GST fusion form of full-length human cIAP1 (human) (Q13490 whole entry, the tested form may be a part): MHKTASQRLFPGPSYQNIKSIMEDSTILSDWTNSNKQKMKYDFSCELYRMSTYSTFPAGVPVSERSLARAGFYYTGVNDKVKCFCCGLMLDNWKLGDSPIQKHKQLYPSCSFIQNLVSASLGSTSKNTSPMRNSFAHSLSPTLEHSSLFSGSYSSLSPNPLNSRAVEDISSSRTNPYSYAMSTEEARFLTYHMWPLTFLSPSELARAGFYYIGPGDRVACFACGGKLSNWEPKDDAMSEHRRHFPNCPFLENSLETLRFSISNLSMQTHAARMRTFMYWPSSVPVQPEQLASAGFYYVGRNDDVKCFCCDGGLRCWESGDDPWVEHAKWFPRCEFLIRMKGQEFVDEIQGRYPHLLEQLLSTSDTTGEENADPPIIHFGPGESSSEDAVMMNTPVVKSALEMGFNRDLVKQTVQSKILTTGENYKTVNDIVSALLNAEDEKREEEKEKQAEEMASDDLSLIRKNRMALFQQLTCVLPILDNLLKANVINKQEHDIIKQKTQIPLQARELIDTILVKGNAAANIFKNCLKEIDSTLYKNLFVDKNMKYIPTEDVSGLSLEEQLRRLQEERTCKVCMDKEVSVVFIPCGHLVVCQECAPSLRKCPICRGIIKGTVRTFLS

Substance “Omi SA (protease dead mutant Omi S306→Ala, C-terminal hexa-His tagged) (from UniProt O43464 134-458) (enzyme)” returned a relief of cIAP1 inhibition of caspase activity in HeLa extracts of 75 nM.

(Values after US20040171105A1.)
